This note sets out measurements from US20180207271A1 (CENTRE HOSPITALIER UNIVERSITAIRE VAUDOIS CHUV, published 2018).

Sequences and labels used below:
B1: recombinant human IL-26 (ligand, UniProt Q9NPH9 22-171, looked up)
chain: KHKQSSFTKSCYPRGTLSQAVDALYIKAAWLKATIPEDRIKNIRLLKKKTKKQFMKNCQFQEQLLSFFMEDVFGQLQLQGCKKIRFVEDFHSLRQKLSHCISCASSAREMKSITRMKRIFYRIGNKGIYKAISELDILLSWIKKLLESSQ
notes: In some functional rows the IL-26 is natural IL-26 in TH17 cell supernatants, as said in the readout; also called rhIL-26; AK155
B2: anti-IL-26 mouse monoclonal antibody clone 142-84-B1 (antibody, V domains shown)
VH: QVQLQQSGAELVRPGASVTLSCKASGFTFPDYEIHWVRQTPVHGLEWIGGIDPETGDTANNQKFKGKATLTADTSSSTAYMELRSLTSEDSAVYYCTRFYGSFDYWDQGTTLTVSS
VL: NIMMTQSPSSLAVSAGEKVTLSCKSSQSVLYSSNQKNYLAWYQQKPGQSPKLLIYWASTRESGVPDRFTGSGSGTDFTLTISSVQAEDLAVYYCHQYLSSYTFGGGTKLEIK
notes: Mouse hybridoma antibody, IgG1; also called clone 84

Data set [1] deals with the molecule itself. Briefly: small angle X-ray scattering (SAXS) of rhIL-26, self-association. The protocol: IL-26 was suspended in 16 mM sodium phosphate buffer, pH 6.5, 560 mM NaCl, 8% glycerol, 2 mM β-mercaptoethanol and concentrated to 1.1 mg/ml. Data were recorded at the ALS, Berkeley, Calif., beamline 12.3.1. (SIBYLS) at 10° C. using a wavelength of 1 A, for values of the momentum transfer vector q=(4π sin θ)/λ between 0.01 and 0.32 Å-1. The same sample was sequentially exposed to X-rays for 0.5s, 1s and 5s. Samples containing buffer only were measured before and after protein samples. The buffer contributions were subtracted from protein scattering data using the ogre new software program available at SIBYLS. Data were not affected by radiation damage as indicated by a constant Rg of the Guinier region for subsequent sample exposures. A combined SAXS pattern was obtained through scaling and merging selected regions of buffer-subtracted scattering pattern for the 0.5s, 1s and 5s exposures. Data between q=0.01 and 0.13 Å-1 were analyzed using PRIMUS, SASREF and DAMMIF of the ATSAS software package.

The data set “recombinant human IL-26” addresses B1. Kind of data set: ELISA screen of hybridomas.

Regarding B1, in data set [1], the binding result is “binds”.
Turning to B2, the binding result in the data set with recombinant human IL-26 is given as “binds”.
